Numbering of substitutions follows the chain as printed. Names and notes keep the numbering of the source.
T1: recombinant human GPA ectodomain (human, UniProt P02724 20-91)
T1 construct: also called recombinant hGPA ECD; recGPA
T1 sequence: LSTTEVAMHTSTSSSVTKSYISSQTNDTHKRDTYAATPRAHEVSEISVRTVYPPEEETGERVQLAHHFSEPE

T2: human glycophorin A in the red blood cell membrane (human, UniProt P02724 20-150)
T2 construct: whole, on cells; used for intact RBC, isolated RBC membranes and transfected cells; the assay field tells which; also called GPA; hGPA
T2 sequence (looked up): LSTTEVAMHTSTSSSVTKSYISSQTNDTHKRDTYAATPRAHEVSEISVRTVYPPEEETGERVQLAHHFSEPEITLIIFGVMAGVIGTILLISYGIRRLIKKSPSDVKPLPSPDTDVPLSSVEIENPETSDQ

T3: purified human glycophorin A protein (Sigma, cat # G5017) (human, UniProt P02724 20-150)
T3 construct: mature; also called Sigma hGPA; Sigma GPA
T3 sequence (looked up): T2 sequence (looked up)

B1: TPP-5316 (Fab, V domains shown)
VH: QVQLVQSGAEVKKPGASVKVSCKASGYTFTTYTIHWVRQAPGQGLEWIGYINPSSDYTRYNPKFKDRVTLTTDKSTSTAYMELRSLRSDDTAVYYCQTGTRDYWGQGTTVTVSS
VL: DIQLTQSPSFLSASVGDRVTITCSAASSVSYIYWFQQKPGKAPKLLIYSTSTLPSGVPSRFSGSGSGTEYTLTISSLQPEDFATYYCHQRNSFPFTFGQGTKLEIKR
notes: also called VH: (E1Q)
B2: TPP-5317 (Fab, V domains shown)
VH: B1 VH with Q1E, T31S
VL: B1 VL
notes: also called VH: (T31S)
B3: TPP-5319 (Fab, V domains shown)
VH: B1 VH with Q1E, I34M
VL: B1 VL
notes: also called VH: (I34M)
B4: TPP-5320 (Fab, V domains shown)
VH: B1 VH with Q1E, I48M
VL: B1 VL
notes: also called VH: (I48M)
B5: TPP-5322 (Fab, V domains shown)
VH: B1 VH with Q1E, S55G
VL: B1 VL
notes: also called VH: (S55G)
B6: TPP-5323 (Fab, V domains shown)
VH: B1 VH with Q1E, D56G
VL: B1 VL
notes: also called VH: (D56G)
B7: TPP-5324 (Fab, V domains shown)
VH: B1 VH with Q1E, Y57S
VL: B1 VL
notes: also called VH: (Y57S)
B8: TPP-5326 (Fab, V domains shown)
VH: B1 VH with Q1E, N61A
VL: B1 VL
notes: also called VH: (N61A)
B9: TPP-5327 (Fab, V domains shown)
VH: B1 VH with Q1E, P62Q
VL: B1 VL
notes: also called VH: (P62Q)
B10: TPP-5328 (Fab, V domains shown)
VH: B1 VH with Q1E, K65Q
VL: B1 VL
notes: also called VH: (K65Q)
B11: TPP-5329 (Fab, V domains shown)
VH: B1 VH with Q1E, D66G
VL: B1 VL
notes: also called VH: (D66G)
B12: TPP-5330 (Fab, V domains shown)
VH: B1 VH with Q1E, L70M
VL: B1 VL
notes: also called VH: (L70M)
B13: TPP-5331 (Fab, V domains shown)
VH: B1 VH with Q1E, T72R
VL: B1 VL
notes: also called VH: (T72R)
B14: TPP-5332 (Fab, V domains shown)
VH: B1 VH with Q1E, K74T
VL: B1 VL
notes: also called VH: (K74T)
B15: TPP-5333 (Fab, V domains shown)
VH: B1 VH with Q1E, R84S
VL: B1 VL
notes: also called VH: (R84S)
B16: TPP-5334 (Fab, V domains shown)
VH: B1 VH with Q1E, D89E
VL: B1 VL
notes: also called VH: (D89E)
B17: TPP-5335 (Fab, V domains shown)
VH: B1 VH with Q1E, Q97A
VL: B1 VL
notes: also called VH: (Q97A)
B18: TPP-5342 (Fab, V domains shown)
VH: B1 VH with Q1E
VL: B1 VL with S27Q
notes: also called VL: (S27Q)
B19: TPP-5343 (Fab, V domains shown)
VH: B1 VH with Q1E
VL: B1 VL with S28G
notes: also called VL: (S28G)
B20: TPP-5344 (Fab, V domains shown)
VH: B1 VH with Q1E
VL: B1 VL with V29I
notes: also called VL: (V29I)
B21: TPP-5345 (Fab, V domains shown)
VH: B1 VH with Q1E
VL: B1 VL with I32L
notes: also called VL: (I32L)
B22: TPP-5346 (Fab, V domains shown)
VH: B1 VH with Q1E
VL: B1 VL with Y33A
notes: also called VL: (Y33A)
B23: TPP-5347 (Fab, V domains shown)
VH: B1 VH with Q1E
VL: B1 VL with F35Y
notes: also called VL: (F35Y)
B24: TPP-5351 (Fab, V domains shown)
VH: B1 VH with Q1E
VL: B1 VL with Y70F
notes: also called VL: (Y70F)
B25: TPP-5352 (Fab, V domains shown)
VH: B1 VH with Q1E
VL: B1 VL with H88Q
notes: also called VL: (H88Q)
B26: TPP-5353 (Fab, V domains shown)
VH: B1 VH with Q1E
VL: B1 VL with R90L
notes: also called VL: (R90L)
B27: TPP-5354 (Fab, V domains shown)
VH: B1 VH with Q1E
VL: B1 VL with F93Y
notes: also called VL: (F93Y)
B28: TPP-5355 (Fab, V domains shown)
VH: B1 VH with Q1E
VL: B1 VL with F95Y
notes: also called VL: (F95Y)
B29: TPP-5357 (Fab, V domains shown)
VH: B1 VH with Q1E
VL: DIQLTQSPSFLSASVGDRVTITCRAASSVSSYIYWFQQKPGKAPKLLIYSTSTLPSGVPSRFSGSGSGTEYTLTISSLQPEDFATYYCHQRNSFPFTFGQGTKLEIKR
notes: also called VL: (S24R)#
B30: TPP-5349 (Fab, V domains shown)
VH: B1 VH with Q1E
VL: B1 VL with T50A
notes: also called VL: (T50A)

Molecular target: T1, recombinant human GPA ectodomain
Assay: ELISA, rec hGPA ectodomain

binding by ELISA relative to parental | Binder
1.29 | B1
1.34 | B2
1.08 | B3
1.35 | B4
0.91 | B5
1.64 | B6
0.34 | B7
0.53 | B8
0.99 | B9
0.91 | B10
1.12 | B11
1.29 | B12
1.07 | B13
0.87 | B14
0.97 | B15
0.89 | B16
0.83 | B17
0.95 | B18
0.97 | B19
0.77 | B20
0.48 | B21
0.03 | B22
0.35 | B23
0.78 | B24
0.26 | B25
0.04 | B26
0.17 | B27
1.35 | B28
0.23 | B29

Molecular target: T2, human glycophorin A in the red blood …
Assay: ELISA, human RBC membranes;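 further: antibodies bound to isolated human red blood cell membrane ghosts coated on 96-well plates, tested 1.5 h at room temperature, bound antibody quantified with a detection antibody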

binding by ELISA relative to parental | Binder
1.16 | B1
0.68 | B2
0.85 | B3
0.99 | B4
0.82 | B5
1.72 | B6
0.41 | B7
0.45 | B8
0.74 | B9
0.61 | B10
1 | B11
0.91 | B12
0.96 | B13
0.58 | B14
0.59 | B15
0.72 | B16
0.65 | B17
0.75 | B18
0.71 | B19
0.6 | B20
0.43 | B21
0.42 | B22
0.43 | B23
0.27 | B30
0.71 | B24
0.34 | B25
0.2 | B26
0.35 | B27
1.18 | B28
0.37 | B29

Molecular target: T3, purified human glycophorin A protein …
Assay: ELISA, native hGPA

binding by ELISA relative to parental | Binder
1.33 | B1
1.36 | B2
0.99 | B3
1.24 | B4
0.86 | B5
1.49 | B6
0.53 | B7
0.56 | B8
0.98 | B9
0.89 | B10
1.02 | B11
1.2 | B12
1.11 | B13
0.83 | B14
0.92 | B15
0.8 | B16
0.77 | B17
0.91 | B18
0.95 | B19
0.84 | B20
0.6 | B21
0.52 | B23
0.12 | B30
0.71 | B24
0.36 | B25
0.33 | B27
1.16 | B28
0.23 | B29

— patent US20190359687A1 (Bayer, published 2019)
